Laboratory results taken from patent US11571484B2, “Compositions that target tumor-associated macrophages and methods of use therefor” (Sanford Burnham Prebys Medical Discovery Institute, priority 2017, dated 2023).
Ends that are not written are not given here. FAM = 5(6)-carboxyfluorescein; Ahx = NCCCCCC(=O)O

Molecular target: T1, recombinant human macrophage mannose receptor rhMMR/CD206 (Homo sapiens, UniProt P22897)
T1 construct: purchased R&D Systems 2534-MR-050
T1 sequence (P22897 19-1456): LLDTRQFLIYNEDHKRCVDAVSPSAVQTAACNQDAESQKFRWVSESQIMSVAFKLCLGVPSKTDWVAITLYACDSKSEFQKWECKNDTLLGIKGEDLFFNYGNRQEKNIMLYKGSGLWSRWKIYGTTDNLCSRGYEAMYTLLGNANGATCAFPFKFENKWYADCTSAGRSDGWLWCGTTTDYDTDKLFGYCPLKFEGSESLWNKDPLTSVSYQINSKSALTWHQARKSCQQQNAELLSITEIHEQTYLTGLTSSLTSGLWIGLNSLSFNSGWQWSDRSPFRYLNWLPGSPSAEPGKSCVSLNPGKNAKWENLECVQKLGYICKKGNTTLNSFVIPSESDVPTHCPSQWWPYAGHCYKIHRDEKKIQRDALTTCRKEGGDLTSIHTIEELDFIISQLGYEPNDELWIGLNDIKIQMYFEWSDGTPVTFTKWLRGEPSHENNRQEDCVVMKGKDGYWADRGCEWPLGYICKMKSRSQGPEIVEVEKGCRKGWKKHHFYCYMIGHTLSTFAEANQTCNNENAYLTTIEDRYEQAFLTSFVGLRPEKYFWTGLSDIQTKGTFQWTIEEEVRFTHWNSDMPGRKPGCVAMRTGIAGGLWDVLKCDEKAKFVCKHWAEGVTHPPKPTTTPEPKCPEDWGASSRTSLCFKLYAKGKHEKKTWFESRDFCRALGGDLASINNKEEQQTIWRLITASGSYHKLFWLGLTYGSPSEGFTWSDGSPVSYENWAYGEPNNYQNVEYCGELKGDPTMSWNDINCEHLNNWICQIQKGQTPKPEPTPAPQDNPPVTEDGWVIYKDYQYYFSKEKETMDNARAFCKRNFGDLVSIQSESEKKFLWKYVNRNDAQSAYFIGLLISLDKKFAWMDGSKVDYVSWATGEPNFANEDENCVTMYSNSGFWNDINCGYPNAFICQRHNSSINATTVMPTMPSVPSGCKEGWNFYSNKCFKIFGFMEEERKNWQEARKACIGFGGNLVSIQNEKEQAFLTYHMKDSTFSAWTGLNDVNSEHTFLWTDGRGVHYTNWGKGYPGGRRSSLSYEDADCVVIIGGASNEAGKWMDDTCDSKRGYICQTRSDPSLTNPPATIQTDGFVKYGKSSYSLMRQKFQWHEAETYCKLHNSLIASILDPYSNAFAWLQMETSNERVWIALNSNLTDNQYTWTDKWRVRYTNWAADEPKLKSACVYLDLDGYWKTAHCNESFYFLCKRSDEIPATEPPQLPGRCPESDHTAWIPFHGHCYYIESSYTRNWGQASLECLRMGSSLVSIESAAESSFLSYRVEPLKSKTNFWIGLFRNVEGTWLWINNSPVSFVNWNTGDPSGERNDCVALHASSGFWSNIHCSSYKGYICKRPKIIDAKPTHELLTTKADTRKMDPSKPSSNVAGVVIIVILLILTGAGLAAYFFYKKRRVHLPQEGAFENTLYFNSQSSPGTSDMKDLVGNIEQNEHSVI
Assay: Fluorescence anisotropy assay with human recombinant CD206
Assay type: binding
Conditions: 100 nM FAM peptide, 0.4 μM protein
Protocol: Time course of fluorescence anisotropy of FAM-mUNO during incubation with human recombinant CD206 (black curve, 3001) or with CD163 (red curve, 3003). The concentration of FAM-mUNO was 100 nM and the concentration of CD206 and CD163 was […]. The anisotropy for the FAM-mUNO alone is shown in the green curve 3004.
Fluorescence anisotropy was also carried out using recombinant human macrophage mannose receptor rhMMR/CD206 to determine whether UNO peptide interactions with mouse CD206 carried over to human CD206. […]
In all experiments, FA signal measurements were done under pseudo first-order conditions with 50 nM singly labelled FAM peptides and 1 μM proteins. […] Assays were carried out in kinetic mode in a total volume of 30 μl at 25° C. on the PHERAstar (BMG Labtech, Germany) microplate reader using an optical module with excitation and emission filters of 485 nm (slit 10 nm) and 520 nm (slit 10 nm), respectively. […] The background fluorescence (receptor and buffer components in the absence of fluorescent ligand) was subtracted independently from all intensity channels. FA signals at time t after initiation of binding reaction was calculated as parameters r(t) from the equation: […]

Substance: FAM-UNO: FAM-labeled UNO peptide CSPGAKVRC (SEQ ID NO: 1); 5(6)-carboxyfluorescein with 6-aminohexanoic acid spacer at the N-terminus ({FAM-Ahx}-CSPGAKVRC; cysteine pairing not given here)
- change in fluorescence anisotropy (interaction) with human recombinant CD206: did not cause a change in the fluorescence anisotropy
